Patent publication US20170022287A1

Tests used:
[1] = target: CRD2-3; test: ELISA, coated CD137-Fc protein 2 µg/mL, antibody 10 or 5 µg/mL, absorbance 620 nm; Non (uncoated well) 1.146
[2] = target: CRD1-3; test: as above
[3] = target: CRD2-4; test: as above
[4] = target: CRD1-2; test: as above
[5] = target: CRD3-4; test: as above
[6] = target: CRD1; test: as above
[7] = target: CRD2-3; test: ELISA, coated CD137-Fc protein 2 µg/mL, antibody 10 or 5 µg/mL; absorbance 620 nm divided by that of the uncoated well
[8] = target: CRD1-3; test: as above
[9] = target: CRD2-4; test: as above
[10] = target: CRD1-2; test: as above
[11] = target: CRD3-4; test: as above
[12] = target: CRD1; test: as above
[13] = target: CRD2-3; test: ELISA, coated CD137-Fc protein 2 µg/mL, antibody 10 or 5 µg/mL, absorbance 620 nm; Non (uncoated well) 2.2055
[14] = target: CRD1-3; test: as above
[15] = target: CRD2-4; test: as above
[16] = target: CRD1-2; test: as above
[17] = target: CRD3-4; test: as above
[18] = target: CRD1; test: as above
[19] = target: CRD2-3; test: ELISA, coated CD137-Fc protein 2 µg/mL, antibody 10 or 5 µg/mL, absorbance 620 nm; Non (uncoated well) 2.0265
[20] = target: CRD1-3; test: as above
[21] = target: CRD2-4; test: as above
[22] = target: CRD1-2; test: as above
[23] = target: CRD3-4; test: as above
[24] = target: CRD1; test: as above
[25] = target: CRD2-3; test: ELISA, coated CD137-Fc protein 2 µg/mL, antibody 10 or 5 µg/mL, absorbance 620 nm; Non (uncoated well) 1.114
[26] = target: CRD1-3; test: as above
[27] = target: CRD2-4; test: as above
[28] = target: full-length human CD137-Fc fusion protein (human); test: as above
[29] = target: CRD3-4; test: as above
[30] = target: full-length human CD137-Fc fusion protein (human); test: ELISA, coated CD137-Fc protein 2 µg/mL, antibody 10 or 5 µg/mL; absorbance 620 nm divided by that of the uncoated well
[31] = target: CRD1-3; test: ELISA, coated CD137-Fc protein 2 µg/mL, antibody 10 or 5 µg/mL, absorbance 620 nm; Non (uncoated well) 0.065
[32] = target: full-length human CD137-Fc fusion protein (human); test: ELISA, coated CD137-Fc protein 2 µg/mL, antibody 10 or 5 µg/mL, absorbance 620 nm; Non (uncoated well) 0.202

Chain of CRD2-4 (chain, as listed by the source limits assumed): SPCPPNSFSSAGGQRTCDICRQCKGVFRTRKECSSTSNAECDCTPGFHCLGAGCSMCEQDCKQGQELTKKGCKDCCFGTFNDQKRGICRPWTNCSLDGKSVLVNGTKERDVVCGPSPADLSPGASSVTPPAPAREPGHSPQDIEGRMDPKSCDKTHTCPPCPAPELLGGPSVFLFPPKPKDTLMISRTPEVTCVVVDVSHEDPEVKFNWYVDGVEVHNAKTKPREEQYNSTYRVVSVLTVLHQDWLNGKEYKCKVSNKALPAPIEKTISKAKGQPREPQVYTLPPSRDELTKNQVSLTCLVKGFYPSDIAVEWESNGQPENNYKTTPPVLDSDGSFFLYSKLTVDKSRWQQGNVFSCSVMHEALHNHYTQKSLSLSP
Chain of CRD1 (chain, as listed by the source limits assumed): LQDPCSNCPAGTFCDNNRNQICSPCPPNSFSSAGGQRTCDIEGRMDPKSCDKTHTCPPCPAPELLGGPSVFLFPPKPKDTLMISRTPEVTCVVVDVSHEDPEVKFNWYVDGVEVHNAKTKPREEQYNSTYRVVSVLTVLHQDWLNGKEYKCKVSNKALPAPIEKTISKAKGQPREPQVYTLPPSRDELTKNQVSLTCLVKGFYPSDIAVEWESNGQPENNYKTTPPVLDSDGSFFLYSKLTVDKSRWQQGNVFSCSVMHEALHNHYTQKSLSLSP
Chain of CRD1-2 (chain, as listed by the source limits assumed): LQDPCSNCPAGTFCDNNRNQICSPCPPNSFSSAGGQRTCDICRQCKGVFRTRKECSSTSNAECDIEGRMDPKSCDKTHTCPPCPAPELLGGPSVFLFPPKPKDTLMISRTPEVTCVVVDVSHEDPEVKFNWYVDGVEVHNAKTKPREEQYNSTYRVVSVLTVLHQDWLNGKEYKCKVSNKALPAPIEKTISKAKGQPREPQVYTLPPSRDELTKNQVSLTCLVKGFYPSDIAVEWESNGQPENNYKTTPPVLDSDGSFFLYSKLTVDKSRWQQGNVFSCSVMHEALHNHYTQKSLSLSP
Chain of CRD3-4 (chain, as listed by the source limits assumed): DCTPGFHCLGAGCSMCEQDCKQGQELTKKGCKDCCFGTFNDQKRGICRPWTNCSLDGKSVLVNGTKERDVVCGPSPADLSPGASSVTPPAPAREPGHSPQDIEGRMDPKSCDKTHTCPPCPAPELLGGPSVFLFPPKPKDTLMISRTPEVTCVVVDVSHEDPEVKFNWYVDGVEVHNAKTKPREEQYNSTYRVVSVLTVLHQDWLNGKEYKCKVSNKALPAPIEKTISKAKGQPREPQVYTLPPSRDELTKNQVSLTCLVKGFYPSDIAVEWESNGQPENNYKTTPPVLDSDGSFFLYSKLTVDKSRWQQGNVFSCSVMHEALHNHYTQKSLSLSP
Chain of CRD1-3 (chain, as listed by the source limits assumed): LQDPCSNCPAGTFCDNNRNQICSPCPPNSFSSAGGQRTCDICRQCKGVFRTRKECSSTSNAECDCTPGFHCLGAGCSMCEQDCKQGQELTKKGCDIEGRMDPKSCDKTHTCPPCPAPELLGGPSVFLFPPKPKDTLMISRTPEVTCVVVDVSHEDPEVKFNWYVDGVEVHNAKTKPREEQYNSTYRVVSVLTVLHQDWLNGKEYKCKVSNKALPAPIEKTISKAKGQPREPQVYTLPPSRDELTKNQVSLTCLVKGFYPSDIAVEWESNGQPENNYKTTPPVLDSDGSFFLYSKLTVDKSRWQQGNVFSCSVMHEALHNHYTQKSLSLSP
Chain of CRD2-3 (chain, as listed by the source limits assumed): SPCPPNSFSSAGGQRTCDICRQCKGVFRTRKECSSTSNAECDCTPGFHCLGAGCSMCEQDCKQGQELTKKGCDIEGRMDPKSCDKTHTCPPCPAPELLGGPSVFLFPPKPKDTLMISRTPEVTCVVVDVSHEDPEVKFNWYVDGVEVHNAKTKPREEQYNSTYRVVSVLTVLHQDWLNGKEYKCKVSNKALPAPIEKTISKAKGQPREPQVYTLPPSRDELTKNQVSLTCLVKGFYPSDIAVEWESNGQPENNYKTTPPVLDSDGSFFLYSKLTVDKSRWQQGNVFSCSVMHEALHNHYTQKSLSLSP
Chain of full-length human CD137-Fc fusion protein (human) (chain, as listed by the source limits assumed): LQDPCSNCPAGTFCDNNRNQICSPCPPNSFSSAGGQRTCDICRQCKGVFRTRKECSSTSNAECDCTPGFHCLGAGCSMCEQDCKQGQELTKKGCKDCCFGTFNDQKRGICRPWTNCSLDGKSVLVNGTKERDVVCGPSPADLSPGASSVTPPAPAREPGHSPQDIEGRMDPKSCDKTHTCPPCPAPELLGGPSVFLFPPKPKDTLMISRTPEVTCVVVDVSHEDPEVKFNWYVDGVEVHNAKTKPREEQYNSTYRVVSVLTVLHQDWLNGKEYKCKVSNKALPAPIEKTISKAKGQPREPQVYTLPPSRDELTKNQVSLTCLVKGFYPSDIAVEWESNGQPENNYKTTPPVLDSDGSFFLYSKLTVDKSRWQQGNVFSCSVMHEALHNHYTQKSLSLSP

Row | Binder | Ratio with respect to Non-Coating [7] | Ratio with respect to Non-Coating [8] | Ratio with respect to Non-Coating [9] | Ratio with respect to Non-Coating [10] | Ratio with respect to Non-Coating [11] | Ratio with respect to Non-Coating [12] | Ratio with respect to Non-Coating [30] | also measured
1 | R13 (antibody, V domains shown) VH: QVQLVESGGGLVQPGGSLRLSCAASGFTFSYYDIQWVRQAPGKGLEWVSSISPSGQSTYYRREVKGRFTISRDNSKNTLYLQMNSLRAEDTAVYYCARRTGREYGGGWYFDYWGQGTLVTVSS VL: DIQMTQSPSSLSASVGDRVTITCRASQSISSYLNWYQQKPGKAPKLLIYAASSLQSGVPSRFSGSGSGTDFTLTISSLQPEDFATYYCQQFSRFPLTFGGGTKVEIK | 0.5 | 0.7 | 0.4 | 0.4 | 0.2 | 0.5 |  | ELISA color development level [1]: 0.555; ELISA color development level [2]: 0.787; ELISA color development level [3]: 0.455; ELISA color development level [4]: 0.45; ELISA color development level [5]: 0.26; ELISA color development level [6]: 0.601
2 | R14 (antibody, V domains shown) VH: QVQLLESGGGLVQPGGSLRLSCAASGFTFSSYAMSWVRQAPGKGLEWVSAISGSGGSTYYADSVKGRFTISRDNSKNTLYLQMNSLRAEDTAVYYCARDKWYYYPALDYWGQGTLVTVSS VL: DIQMTQSPSSLSASVGDRVTITCRASQSISSYLNWYQQKPGKAPKLLIYAASSLQSGVPSRFSGSGSGTDFTLTISSLQPEDFATYYCLQVYRSPLTFGGGTKVEIK | 1.2 | 1.1 | 1 | 0.8 | 1.3 | 0.7 |  | ELISA color development level [13]: 2.72; ELISA color development level [14]: 2.42; ELISA color development level [15]: 2.21; ELISA color development level [16]: 1.7; ELISA color development level [17]: 2.76; ELISA color development level [18]: 1.64
3 | R11 (antibody, V domains shown) VH: QVQLLESGGGLVQPGGSLRLSCAASGFTFSSYAMSWVRQAPGKGLEWVSAISGSGGSTYYADSVKGRFTISRDNSKNTLYLQMNSLRAEDTAVYYCARDKWYYYPALDYWGQGTLVTVSS VL: DIQMTQSPSSLSASVGDRVTITCRASQSISSYLNWYQQKPGKAPKLLIYAASSLQSGVPSRFSGSGSGTDFTLTISSLQPEDFATYYCQQFSRFPLTFGGGTKVEIK | 1.3 | 1.2 | 1.1 | 0.8 | 1.4 | 0.9 |  | ELISA color development level [19]: 2.73; ELISA color development level [20]: 2.45; ELISA color development level [21]: 2.3; ELISA color development level [22]: 1.69; ELISA color development level [23]: 2.88; ELISA color development level [24]: 1.82
4 | R8 (antibody, V domains shown) VH: QVQLQESGPGLVKPSETLSLTCAVSGYSISSGYYWGWIRQPPGKGLEWIGSIYHSGSTYYNPSLKSRVTISVDTSKNQFSLKLSSVTAADTAVYYCARQHSFTRYYGYYYFDYWGQGTTVTVSS VL: DIQMTQSPSSLSASVGDRVTITCRASQSISSYLNWYQQKPGKAPKLLIYAASSLQSGVPSRFSGSGSGTDFTLTISSLQPEDFATYYCLQSDSIPLTFGGGTKVEIK | 2.2 | 2 | 2 |  | 2.3 |  | 1.9 | ELISA color development level [25]: 2.42; ELISA color development level [26]: 2.25; ELISA color development level [27]: 2.23; ELISA color development level [28]: 2.09; ELISA color development level [29]: 2.52
5 | R1 (antibody, V domains shown) VH: EVQLVQSGAEVKKPGASVKVSCKASGYTFTSYYTHWVRQAPGQGLEWMGIINPSGGSTSYAQKFQGRVTMTRDTSTSTVYMELSSLRSEDTAVYYCARGAPEYSSSSDYWGQGTMVTVSS VL: QSALTQPASVSGSPGQSITISCTGTSSDVGGYNYVSWYQQHPGKAPKLMIYDVSNRPSGVSNRFSGSKSGNTASLTISGLQAEDEADYYCSSYTSSSTRWVFGGGTKLTVL |  | 7.3 |  |  |  |  |  | ELISA color development level [31]: 0.473
6 | R2 (antibody, V domains shown) VH: EVQLQESGPGLVKPSETLSLTCTVSGGSISSSSYYWGWIRQPPGKGLEWIGSIHYTGSTYYNPSLKSRVTISVDTSKNQFSLKLSSVTAADTAVYYCARLNPSIAARPGAFDIWGQGTMVTVSS VL: QSVLTQPPSVSAAPGQKVTISCSGSSSNIANNFVSWFQQLPGTAPKLLIYDNNKRPSGIPDRFSGSKSGTSATLGITGLQTGDEADYYCGTWDRSLSAGVFGGGTKVTVL |  |  |  |  |  |  | 1 | ELISA color development level [32]: 0.205
